Data published in the Immune Epitope Database (IEDB).

Assays:
HLA-A*02:16 = assay: IEDB peptide-MHC binding, purified MHC/direct/fluorescence; filed as Kd, often an IC50 or EC50 that approximates it; ≥ and ≤ were set here for values at or beyond the usual limits of such assays
HLA-A*02:12 = assay: as above
HLA-B*51:01 = assay: as above
HLA-A*02:19 = assay: as above
HLA-B*18:01 = assay: as above
HLA-A*02:01 [1] = assay: as above
HLA-B*27:03 = assay: as above
HLA-A*02:03 = assay: as above
HLA-A*03:01 = assay: as above
HLA-B*15:01 = assay: as above
HLA-B*46:01 = assay: as above
HLA-B*57:01 = assay: as above
HLA-A*26:01 = assay: as above
HLA-C*05:01 = assay: as above; settings: source organism: human gammaherpesvirus 4
HLA-C*04:01 = assay: IEDB peptide-MHC binding, purified MHC/competitive/fluorescence; filed as Kd, often an IC50 or EC50 that approximates it; ≥ and ≤ were set here for values at or beyond the usual limits of such assays; settings: source organism: human gammaherpesvirus 4
HLA-B*15:42 = assay: as above
HLA-A*02:01 [2] = assay: as above
HLA-B*45:06 = assay: as above
HLA-A*69:01 [3] = assay: as above; settings: source organism: human gammaherpesvirus 4
HLA-B*83:01 = assay: as above
HLA-C*15:02 = assay: IEDB peptide-MHC binding, purified MHC/direct/fluorescence; filed as Kd, often an IC50 or EC50 that approximates it; ≥ and ≤ were set here for values at or beyond the usual limits of such assays
HLA-A*69:01 [4] = assay: as above
HLA-A*02:11 = assay: as above
HLA-B*15:17 = assay: as above
HLA-A*24:03 = assay: as above
HLA-A*68:02 = assay: as above
HLA-B*39:01 = assay: as above
HLA-C*14:02 = assay: IEDB peptide-MHC binding, purified MHC/competitive/fluorescence; filed as Kd, often an IC50 or EC50 that approximates it; ≥ and ≤ were set here for values at or beyond the usual limits of such assays; settings: source organism: Yellow fever virus
HLA-B*48:01 = assay: as above
HLA-B*08:03 = assay: IEDB peptide-MHC binding, purified MHC/direct/fluorescence; filed as Kd, often an IC50 or EC50 that approximates it; ≥ and ≤ were set here for values at or beyond the usual limits of such assays; settings: source organism: Influenza A virus(A/swine/Shandong/fZC/2003(H9N2))
HLA-A*01:01 = assay: as above; settings: source organism: Influenza A virus (A/duck/Vietnam/15/2003(H5N1))
HLA-B*07:02 = assay: as above; settings: source organism: Influenza A virus (A/duck/Vietnam/15/2003(H5N1))
HLA-B*27:05 = assay: as above; settings: source organism: Influenza A virus (A/duck/Vietnam/15/2003(H5N1))
HLA-B*58:01 = assay: as above; settings: source organism: Influenza A virus (A/duck/Vietnam/15/2003(H5N1))
HLA-B*40:01 = assay: as above; settings: source organism: Influenza A virus (A/duck/Vietnam/15/2003(H5N1))
HLA-A*30:01 = assay: IEDB peptide-MHC binding, purified MHC/competitive/fluorescence; filed as Kd, often an IC50 or EC50 that approximates it; ≥ and ≤ were set here for values at or beyond the usual limits of such assays; settings: source organism: Influenza A virus (A/X-31(H3N2))
HLA-A*29:02 = assay: IEDB peptide-MHC binding, purified MHC/direct/fluorescence; filed as Kd, often an IC50 or EC50 that approximates it; ≥ and ≤ were set here for values at or beyond the usual limits of such assays; settings: source organism: Bacillus anthracis str. 'Ames Ancestor'
[5] = source organism: Vibrio vulnificus YJ016
[6] = source organism: human gammaherpesvirus 4
[7] = source organism: Camelpox virus CMS
[8] = source organism: Burkholderia mallei ATCC 23344
[9] = source organism: Yellow fever virus
[10] = source organism: Encephalitozoon cuniculi GB-M1
[11] = source organism: Influenza A virus (A/duck/Vietnam/15/2003(H5N1))
[12] = source organism: Bacillus anthracis str. 'Ames Ancestor'

Sequence FPLWNTEKI has a Kd (HLA-A*02:16; [5]) of no less than 20 µM, a Kd (HLA-A*02:12; [5]) of no less than 20 µM and a Kd (HLA-B*51:01; [5]) of 71 nM. The Kd (HLA-A*02:19; [5]) was no less than 20 µM, the Kd (HLA-B*18:01; [5]) was no less than 20 µM and the Kd (HLA-A*02:01 [1]; [5]) was no less than 20 µM. The Kd (HLA-B*27:03; [5]) was no less than 20 µM, the Kd (HLA-A*02:03; [5]) was no less than 20 µM and the Kd (HLA-A*03:01; [5]) was no less than 20 µM. For the same sequence, the Kd (HLA-B*15:01; [5]) was no less than 20 µM, the Kd (HLA-B*46:01; [5]) was no less than 20 µM and the Kd (HLA-B*57:01; [5]) was no less than 20 µM. The Kd (HLA-A*26:01; [5]) was no less than 20 µM.

FTASVSTVV gave a Kd (HLA-C*05:01) of 3.95 µM, a Kd (HLA-C*04:01) of no less than 5 µM and a Kd (HLA-B*15:42; [6]) of no less than 5 µM. The Kd (HLA-A*02:01 [2]; [6]) was 2.7 nM, the Kd (HLA-B*45:06; [6]) was no less than 5 µM and the Kd (HLA-A*69:01 [3]) was no more than 0.1 nM. For the same sequence, the Kd (HLA-B*83:01; [6]) was no less than 5 µM.

For IVIEAIHTV, the Kd (HLA-C*15:02; [7]) was 341 nM and the Kd (HLA-A*02:01 [2]; [7]) was 2.1 nM.

In the case of LVTGAGSGF, the Kd (HLA-A*02:16; [8]) is reported as no less than 20 µM, the Kd (HLA-A*02:12; [8]) is reported as no less than 20 µM and the Kd (HLA-A*02:19; [8]) is reported as no less than 20 µM. For the same sequence, the Kd (HLA-B*18:01; [8]) was no less than 20 µM, the Kd (HLA-A*02:01 [1]; [8]) was no less than 20 µM and the Kd (HLA-B*27:03; [8]) was no less than 20 µM. It also gave a Kd (HLA-A*02:03; [8]) of no less than 20 µM, a Kd (HLA-A*03:01; [8]) of no less than 20 µM and a Kd (HLA-B*46:01; [8]) of no less than 20 µM. It also gave a Kd (HLA-A*69:01 [4]; [8]) of no less than 20 µM, a Kd (HLA-A*02:11; [8]) of no less than 20 µM and a Kd (HLA-B*15:17; [8]) of 148 nM. For the same sequence, the Kd (HLA-A*24:03; [8]) was no less than 20 µM, the Kd (HLA-A*68:02; [8]) was no less than 20 µM and the Kd (HLA-B*57:01; [8]) was no less than 20 µM. For the same sequence, the Kd (HLA-B*39:01; [8]) was no less than 20 µM and the Kd (HLA-A*26:01; [8]) was no less than 20 µM.

In the case of MWHVTRGAF, the Kd (HLA-C*15:02; [9]) is reported as no less than 20000 nM, the Kd (HLA-B*15:42; [9]) is reported as no less than 5 µM and the Kd (HLA-C*14:02) is reported as 2.8 nM. The Kd (HLA-B*45:06; [9]) was no less than 5 µM and the Kd (HLA-B*83:01; [9]) was no less than 5 µM.

RNMSRIFPY was tested, and the Kd (HLA-A*02:16; [10]) was no less than 20 µM, the Kd (HLA-A*02:12; [10]) was no less than 20 µM and the Kd (HLA-A*02:19; [10]) was no less than 20 µM. The Kd (HLA-B*27:03; [10]) was no less than 20 µM, the Kd (HLA-A*02:03; [10]) was no less than 20 µM and the Kd (HLA-A*03:01; [10]) was no less than 20 µM. For the same sequence, the Kd (HLA-B*46:01; [10]) was no less than 20 µM, the Kd (HLA-A*69:01 [4]; [10]) was no less than 20 µM and the Kd (HLA-B*15:17; [10]) was 180 nM. For the same sequence, the Kd (HLA-B*39:01; [10]) was no less than 20 µM.

With RQVWWKALL the Kd (HLA-B*48:01; source organism: Vibrio cholerae MAK 757) was 22.6 nM.

Sequence SHEGEGIPL has a Kd (HLA-B*08:03) of no less than 20 µM, a Kd (HLA-A*01:01) of no less than 20 µM and a Kd (HLA-B*07:02) of no less than 20 µM. The Kd (HLA-B*18:01; [11]) was no less than 20 µM, the Kd (HLA-A*02:01 [1]; [11]) was no less than 20 µM and the Kd (HLA-A*03:01; [11]) was no less than 20 µM. It also gave a Kd (HLA-B*27:05) of no less than 20 µM, a Kd (HLA-B*15:01; [11]) of no less than 20 µM and a Kd (HLA-B*58:01) of no less than 20 µM. The Kd (HLA-B*46:01; [11]) was no less than 20 µM, the Kd (HLA-A*69:01 [4]; [11]) was no less than 20 µM and the Kd (HLA-B*15:17; [11]) was no less than 20000 nM. The Kd (HLA-A*68:02; [11]) was no less than 20 µM, the Kd (HLA-B*40:01) was no less than 20 µM and the Kd (HLA-B*57:01; [11]) was no less than 20 µM. For the same sequence, the Kd (HLA-B*39:01; [11]) was 0.0995 µM, the Kd (HLA-A*26:01; source organism: Influenza A virus(A/swine/Shandong/fZC/2003(H9N2))) was no less than 20 µM and the Kd (HLA-A*30:01) was no less than 20 µM. For the same sequence, the Kd (HLA-B*48:01; source organism: Influenza A virus (A/X-31(H3N2))) was no less than 20000 nM.

With TKAGMAQYL the Kd (HLA-A*02:16; [12]) was no less than 20 µM, the Kd (HLA-A*02:12; [12]) was no less than 20 µM and the Kd (HLA-A*29:02) was no less than 20 µM. For the same sequence, the Kd (HLA-B*51:01; [12]) was no less than 20000 nM, the Kd (HLA-A*02:19; [12]) was no less than 20 µM and the Kd (HLA-B*18:01; [12]) was no less than 20 µM. The Kd (HLA-A*02:01 [1]; [12]) was no less than 20 µM, the Kd (HLA-B*27:03; [12]) was no less than 20 µM and the Kd (HLA-A*02:03; [12]) was no less than 20 µM. For the same sequence, the Kd (HLA-A*03:01; [12]) was no less than 20 µM, the Kd (HLA-B*15:01; [12]) was no less than 20 µM and the Kd (HLA-B*46:01; [12]) was no less than 20 µM. It also gave a Kd (HLA-A*69:01 [4]; [12]) of no less than 20 µM, a Kd (HLA-A*02:11; [12]) of no less than 20 µM and a Kd (HLA-B*15:17; [12]) of no less than 20000 nM. It also gave a Kd (HLA-A*24:03; [12]) of no less than 20 µM, a Kd (HLA-B*57:01; [12]) of no less than 20 µM and a Kd (HLA-A*26:01; [12]) of no less than 20 µM.
